Drawing on patent publication US20150218230, this text covers activity (% GFP negative cells) for one substance.

Assay in all cases: cell_activity
Data set [1] deals with TALE-nuclease collection F NG-NI-NG (synthetic).
Data set [2] deals with TALE-nuclease collection F NG-NN-NG (synthetic).
In data set [3] the test system is TALE-nuclease collection F HD-NG-HD (synthetic).
In data set [4] the test system is TALE-nuclease collection F NG-NI-HD (synthetic).
Data set [5] has as its system TALE-nuclease collection F NG-NG-NI (synthetic).
The test system of data set [6] is TALE-nuclease collection F NI-NG-HD (synthetic).
Data set [7] deals with TALE-nuclease collection F NN-NI-NN (synthetic).
Data set [8] concerns TALE-nuclease collection F NG-HD-NI (synthetic).
In data set [9] the test system is TALE-nuclease collection F NG-NI-NN (synthetic).
Data set [10] relates to TALE-nuclease collection F NN-NI-NG (synthetic).
In data set [11] the test system is TALE-nuclease collection F NG-NN-NN (synthetic).
Data set [12] deals with TALE-nuclease collection F HD-NN-NN (synthetic).
The test system of data set [13] is TALE-nuclease collection F NG-NG-NG (synthetic).
Data set [14] relates to TALE-nuclease collection F NG-HD-NN (synthetic).
Data set [15] deals with TALE-nuclease collection F NG-HD-HD (synthetic).
In data set [16] the test system is TALE-nuclease collection F NG-NG-HD (synthetic).
The test system of data set [17] is TALE-nuclease collection F NN-NG-NI (synthetic).
For data set [18], the system named is TALE-nuclease collection F NG-NI-NI (synthetic).
Data set [19] has as its system TALE-nuclease collection F NG-NN-HD (synthetic). The settings on record: GFP disruption, mammalian cells, rank 1.
Data set [20] deals with TALE-nuclease collection F NG-HD-NG (synthetic).
Data set [21] concerns TALE-nuclease collection F NG-NG-NN (synthetic).
Data set [22] has as its system TALE-nuclease collection F NI-NN-NG (synthetic).
For data set [23], the system named is TALE-nuclease collection F NN-NI-HD (synthetic).
Data set [24] deals with TALE-nuclease collection F NI-NN-NN (synthetic).

In the case of “integrated GFP locus TALE-nuclease target”, the activity (% GFP negative cells) was determined as 18.3 in [1]; 22.2 in [2]; 3.9 in data set [3]; 22.8 in data set [4]; 9.4 in data set [5]; 3.6 in data set [6]. The activity (% GFP negative cells) worked out at 3.2 in [7]; 4.5 in [8]; 17.7 in [9]; 5.1 in data set [10]; 19.8 in data set [11]; 4.4 in data set [12]. For the same substance, the activity (% GFP negative cells) in data set [13] was 19.5; in [14], 6.5; in [15] it was 18.9; in [16] it was 21; in data set [17], 7.6; in [18], 12.6. Also, the activity (% GFP negative cells) in [19] is 28.8; in data set [20] it was 14.7; in data set [21], 18.6; in [22], 5.9; in [23] it was 5.3; in data set [24] it was 6.2.
